According to article PMC3735781 (Journal of the American Chemical Society, 2013):

Assays:
Experiment in all cases: HPLC steady-state kinetics, amide hydrolysis at lactyl moiety
[1] = tested on: CC(=O)N[C@H]1[C@@H]2OC[C@@H](O2)[C@@H](O)[C@@H]1O[C@H](C)C(=O)N[C@@H](C)C(=O)N[C@H](CCC(=O)N[C@@H](CCC[C@@H](N)C(=O)O)C(=O)N[C@H](C)C(=O)O)C(=O)O; type: biochemical, Pseudomonas aeruginosa; conditions: 25 °C (Figure 2 reaction)
AmpDh2 = biological target: T1, AmpDh2 (Pseudomonas aeruginosa, UniProt Q9HT86); type: biochemical; conditions: 100 μM ZnCl2
T1 sequence (Q9HT86 18-259): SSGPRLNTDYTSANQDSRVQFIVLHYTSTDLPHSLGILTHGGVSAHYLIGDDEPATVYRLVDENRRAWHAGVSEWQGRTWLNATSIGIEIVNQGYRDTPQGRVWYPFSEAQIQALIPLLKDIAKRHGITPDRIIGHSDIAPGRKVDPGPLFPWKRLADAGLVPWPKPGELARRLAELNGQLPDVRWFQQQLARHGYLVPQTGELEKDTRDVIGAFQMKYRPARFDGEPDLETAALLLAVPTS

AmpDh3 = biological target: T2, AmpDh3 (Pseudomonas aeruginosa, UniProt Q9I5D1); type: biochemical; conditions: 100 μM ZnCl2
T2 sequence (Q9I5D1 1-255): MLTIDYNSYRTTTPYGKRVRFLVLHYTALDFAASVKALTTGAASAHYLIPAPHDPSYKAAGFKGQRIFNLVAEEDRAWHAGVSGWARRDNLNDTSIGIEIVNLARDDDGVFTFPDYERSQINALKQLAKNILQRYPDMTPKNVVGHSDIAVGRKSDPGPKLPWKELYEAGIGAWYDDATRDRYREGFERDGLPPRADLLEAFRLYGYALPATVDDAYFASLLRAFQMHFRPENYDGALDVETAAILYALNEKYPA

[2] = substrate: CC(=O)N[C@H]1[C@@H]2OC[C@@H](O2)[C@@H](O)[C@@H]1O[C@H](C)C(=O)N[C@@H](C)C(=O)N[C@H](CCC(=O)N[C@@H](CCC[C@@H](N)C(=O)O)C(=O)N[C@H](C)C(=O)O)C(=O)O; type: biochemical, Pseudomonas aeruginosa; conditions: 100 μM ZnCl2

What does the source list for AmpD (Pseudomonas aeruginosa PAO1)?
Km [1]: 1.2 ± 0.3 mM; kcat [1]: 39.8 ± 3.1 s⁻¹; kcat/Km [1]: 33200 ± 7500 M⁻¹ s⁻¹

muramyl tetrapeptide 8 [compound 8] was tested. Which Km (AmpDh2) did it give?
The Km was 1.8 ± 0.3 mM.

What about the Km (AmpDh3) of the same molecule?
The Km was 1.4 ± 0.2 mM.

B1: AmpDh3 (Pseudomonas aeruginosa PAO1) (protein)
chain: MLTIDYNSYRTTTPYGKRVRFLVLHYTALDFAASVKALTTGAASAHYLIPAPHDPSYKAAGFKGQRIFNLVAEEDRAWHAGVSGWARRDNLNDTSIGIEIVNLARDDDGVFTFPDYERSQINALKQLAKNILQRYPDMTPKNVVGHSDIAVGRKSDPGPKLPWKELYEAGIGAWYDDATRDRYREGFERDGLPPRADLLEAFRLYGYALPATVDDAYFASLLRAFQMHFRPENYDGALDVETAAILYALNEKYPA
What does the source list for B1?
Km [2]: 4.5 ± 0.6 mM; kcat [2]: 70.6 ± 6.6 s⁻¹; kcat/Km [2]: 15700 ± 1900 M⁻¹ s⁻¹
